± gives the uncertainty stated by the source.

B1: GA-binding protein alpha chain, residues 172 to 250; numbered along this chain, Q06546 (parent)
chain: GYRKEQERLGIPYDPIQWSTDQVLHWVVWVMKEFSMTDIDLTTLNISGRELCSLNQEDFFQRVPRGEILWSHLELLRKY

In the series the parent is B1. The series can be described thus: abundance fitness (aPCA) (normalised: wild type 0, dead -1); higher = more abundant; growth selection in yeast, the domain comes from the species named. Particulars: Homo sapiens.
Take GYRKEQERLGIPYDPIQWSTDQVLHWVVWVMKEFSMTDIDLTTLNISGRELCSLNQEDFFKRVPRGEILWSHLELLRKY [Q61K]: the abundance fitness was -0.016 ± 0.14.

Regarding GYRKEQERLGIPYDPIQWSTDQVLHWVVWVMKEFSMTDIDLTTLNISGRELCSLNQEDFFPRVPRGEILWSHLELLRKY [Q61P], the abundance fitness is -0.777 ± 0.12. The value for GYRKEQERLGIPYDPIQWSTDQVLHWVVWVMKEFSMTDIDLTTLNISGRELCSLNQEDFFRRVPRGEILWSHLELLRKY [Q61R] was -0.011 ± 0.029.

On to GYRKEQERLGIPYDPIQWSTDQVLHWVVWVMKEFSMTDIDLTTLNISGRELCSLNQEDFFLRVPRGEILWSHLELLRKY [Q61L], for which the abundance fitness is -0.009 ± 0.049. For the variant GYRKEQERLGIPYDPIQWSTDQVLHWVVWVMKEFSMTDIDLTTLNISGRELCSLNQEDFFERVPRGEILWSHLELLRKY [Q61E], the abundance fitness is -0.041 ± 0.059.

As to GYRKEQERLGIPYDPIQWSTDQVLHWVVWVMKEFSMTDIDLTTLNISGRELCSLNQEDFFGRVPRGEILWSHLELLRKY [Q61G], the abundance fitness was -0.029 ± 0.033. The value for GYRKEQERLGIPYDPIQWSTDQVLHWVVWVMKEFSMTDIDLTTLNISGRELCSLNQEDFFIRVPRGEILWSHLELLRKY [Q61I] was -0.178 ± 0.11; that for GYRKEQERLGIPYDPIQWSTDQVLHWVVWVMKEFSMTDIDLTTLNISGRELCSLNQEDFFMRVPRGEILWSHLELLRKY [Q61M] was -0.022 ± 0.06; that for GYRKEQERLGIPYDPIQWSTDQVLHWVVWVMKEFSMTDIDLTTLNISGRELCSLNQEDFFTRVPRGEILWSHLELLRKY [Q61T] was 0.014 ± 0.053.

As for GYRKEQERLGIPYDPIQWSTDQVLHWVVWVMKEFSMTDIDLTTLNISGRELCSLNQEDFFDRVPRGEILWSHLELLRKY [Q61D], the abundance fitness was -0.155 ± 0.088. With GYRKEQERLGIPYDPIQWSTDQVLHWVVWVMKEFSMTDIDLTTLNISGRELCSLNQEDFFVRVPRGEILWSHLELLRKY [Q61V], the abundance fitness is -0.01 ± 0.042. The value for GYRKEQERLGIPYDPIQWSTDQVLHWVVWVMKEFSMTDIDLTTLNISGRELCSLNQEDFFARVPRGEILWSHLELLRKY [Q61A] was -0.014 ± 0.038; that for GYRKEQERLGIPYDPIQWSTDQVLHWVVWVMKEFSMTDIDLTTLNISGRELCSLNQEDFFSRVPRGEILWSHLELLRKY [Q61S] was 0.004 ± 0.045; that for GYRKEQERLGIPYDPIQWSTDQVLHWVVWVMKEFSMTDIDLTTLNISGRELCSLNQEDFFYRVPRGEILWSHLELLRKY [Q61Y] was -0.203 ± 0.13. The value for GYRKEQERLGIPYDPIQWSTDQVLHWVVWVMKEFSMTDIDLTTLNISGRELCSLNQEDFFWRVPRGEILWSHLELLRKY [Q61W] was -0.298 ± 0.043. In the case of GYRKEQERLGIPYDPIQWSTDQVLHWVVWVMKEFSMTDIDLTTLNISGRELCSLNQEDFFCRVPRGEILWSHLELLRKY [Q61C], the abundance fitness is -0.091 ± 0.075. The value for GYRKEQERLGIPYDPIQWSTDQVLHWVVWVMKEFSMTDIDLTTLNISGRELCSLNQEDFFQEVPRGEILWSHLELLRKY [R62E] was -0.197 ± 0.083. The value for GYRKEQERLGIPYDPIQWSTDQVLHWVVWVMKEFSMTDIDLTTLNISGRELCSLNQEDFFQGVPRGEILWSHLELLRKY [R62G] was -0.426 ± 0.06. The value for GYRKEQERLGIPYDPIQWSTDQVLHWVVWVMKEFSMTDIDLTTLNISGRELCSLNQEDFFQFVPRGEILWSHLELLRKY [R62F] was -0.192 ± 0.068.

For GYRKEQERLGIPYDPIQWSTDQVLHWVVWVMKEFSMTDIDLTTLNISGRELCSLNQEDFFQYVPRGEILWSHLELLRKY [R62Y], the abundance fitness is -0.133 ± 0.13.

As to GYRKEQERLGIPYDPIQWSTDQVLHWVVWVMKEFSMTDIDLTTLNISGRELCSLNQEDFFQTVPRGEILWSHLELLRKY [R62T], the abundance fitness was -0.194 ± 0.056. Turning to GYRKEQERLGIPYDPIQWSTDQVLHWVVWVMKEFSMTDIDLTTLNISGRELCSLNQEDFFQSVPRGEILWSHLELLRKY [R62S], the abundance fitness is -0.156 ± 0.028. The value for GYRKEQERLGIPYDPIQWSTDQVLHWVVWVMKEFSMTDIDLTTLNISGRELCSLNQEDFFQHVPRGEILWSHLELLRKY [R62H] was -0.213 ± 0.16. The value for GYRKEQERLGIPYDPIQWSTDQVLHWVVWVMKEFSMTDIDLTTLNISGRELCSLNQEDFFQPVPRGEILWSHLELLRKY [R62P] was -1.06 ± 0.13. The value for GYRKEQERLGIPYDPIQWSTDQVLHWVVWVMKEFSMTDIDLTTLNISGRELCSLNQEDFFQCVPRGEILWSHLELLRKY [R62C] was -0.143 ± 0.055.

With GYRKEQERLGIPYDPIQWSTDQVLHWVVWVMKEFSMTDIDLTTLNISGRELCSLNQEDFFQWVPRGEILWSHLELLRKY [R62W], the abundance fitness is -0.314 ± 0.039.

With GYRKEQERLGIPYDPIQWSTDQVLHWVVWVMKEFSMTDIDLTTLNISGRELCSLNQEDFFQMVPRGEILWSHLELLRKY [R62M], the abundance fitness is 0.07 ± 0.06.

As for GYRKEQERLGIPYDPIQWSTDQVLHWVVWVMKEFSMTDIDLTTLNISGRELCSLNQEDFFQKVPRGEILWSHLELLRKY [R62K], the abundance fitness is -0.014 ± 0.089. Turning to GYRKEQERLGIPYDPIQWSTDQVLHWVVWVMKEFSMTDIDLTTLNISGRELCSLNQEDFFQVVPRGEILWSHLELLRKY [R62V], the abundance fitness was -0.039 ± 0.08. The value for GYRKEQERLGIPYDPIQWSTDQVLHWVVWVMKEFSMTDIDLTTLNISGRELCSLNQEDFFQQVPRGEILWSHLELLRKY [R62Q] was -0.106 ± 0.074.

As to GYRKEQERLGIPYDPIQWSTDQVLHWVVWVMKEFSMTDIDLTTLNISGRELCSLNQEDFFQLVPRGEILWSHLELLRKY [R62L], the abundance fitness was found to be 0.008 ± 0.037. The value for GYRKEQERLGIPYDPIQWSTDQVLHWVVWVMKEFSMTDIDLTTLNISGRELCSLNQEDFFQAVPRGEILWSHLELLRKY [R62A] was -0.132 ± 0.16; that for GYRKEQERLGIPYDPIQWSTDQVLHWVVWVMKEFSMTDIDLTTLNISGRELCSLNQEDFFQDVPRGEILWSHLELLRKY [R62D] was -0.797 ± 0.35; that for GYRKEQERLGIPYDPIQWSTDQVLHWVVWVMKEFSMTDIDLTTLNISGRELCSLNQEDLFQRVPRGEILWSHLELLRKY [F59L] was -0.424 ± 0.041.

Values taken from the Human Domainome abundance scans (Beltran et al. 2025).
